# Measurements as given in patent publication US7659081B2, “Determination of AM-binding proteins and the association of adrenomedullin (AM) therewith” (The United States of America as represented by the …, priority 1999, dated 2010).
# Where no end group is shown, it is not given here.
# What was measured:
# [1] = molecular target: AM/fH complex (Homo sapiens, UniProt P08603); conditions: 3M NaSCN
# Description: (§1) Alternatively, the AM/fH interaction was analyzed using a multi-well assay. In accordance with this assay, a 96-well polyvinylchloride (PVC) plate was coated with factor H (5 ng/well, Sigma, St. Louis, Mo.). The plate was blocked with a solution containing TBS, 0.1% ATC, and 0.1% TWEEN® 20 nonionic detergent, and then incubated with fluorescein-labeled AM (50 nM) for 2 hr. Prior to the development of the assay, the wells were incubated for various time periods with PBS or 3M NaSCN pH 7.4. Following this, the plate was washed and incubated with anti-fluorescein polyclonal antibody (1:1000, Molecular Probes) and ^125I-Protein A (Amersham Pharmacia Biotech). Radioactivity was determined using a gamma counter. FIG. 6B.
# [2] = molecular target: T1, AMBP-1 (factor H) (Homo sapiens, UniProt P08603); experiment: Ligand blot competition of labeled AM binding to plasma AMBP-1; conditions: 7 μM unlabeled peptide, preincubation 6 hr at 4° C.
# T1 construct: Total proteins derived from human plasma (2 μl) were electrophoretically fractionated; from tissue; host or cells: human plasma
# T1 sequence (P08603 19-1231): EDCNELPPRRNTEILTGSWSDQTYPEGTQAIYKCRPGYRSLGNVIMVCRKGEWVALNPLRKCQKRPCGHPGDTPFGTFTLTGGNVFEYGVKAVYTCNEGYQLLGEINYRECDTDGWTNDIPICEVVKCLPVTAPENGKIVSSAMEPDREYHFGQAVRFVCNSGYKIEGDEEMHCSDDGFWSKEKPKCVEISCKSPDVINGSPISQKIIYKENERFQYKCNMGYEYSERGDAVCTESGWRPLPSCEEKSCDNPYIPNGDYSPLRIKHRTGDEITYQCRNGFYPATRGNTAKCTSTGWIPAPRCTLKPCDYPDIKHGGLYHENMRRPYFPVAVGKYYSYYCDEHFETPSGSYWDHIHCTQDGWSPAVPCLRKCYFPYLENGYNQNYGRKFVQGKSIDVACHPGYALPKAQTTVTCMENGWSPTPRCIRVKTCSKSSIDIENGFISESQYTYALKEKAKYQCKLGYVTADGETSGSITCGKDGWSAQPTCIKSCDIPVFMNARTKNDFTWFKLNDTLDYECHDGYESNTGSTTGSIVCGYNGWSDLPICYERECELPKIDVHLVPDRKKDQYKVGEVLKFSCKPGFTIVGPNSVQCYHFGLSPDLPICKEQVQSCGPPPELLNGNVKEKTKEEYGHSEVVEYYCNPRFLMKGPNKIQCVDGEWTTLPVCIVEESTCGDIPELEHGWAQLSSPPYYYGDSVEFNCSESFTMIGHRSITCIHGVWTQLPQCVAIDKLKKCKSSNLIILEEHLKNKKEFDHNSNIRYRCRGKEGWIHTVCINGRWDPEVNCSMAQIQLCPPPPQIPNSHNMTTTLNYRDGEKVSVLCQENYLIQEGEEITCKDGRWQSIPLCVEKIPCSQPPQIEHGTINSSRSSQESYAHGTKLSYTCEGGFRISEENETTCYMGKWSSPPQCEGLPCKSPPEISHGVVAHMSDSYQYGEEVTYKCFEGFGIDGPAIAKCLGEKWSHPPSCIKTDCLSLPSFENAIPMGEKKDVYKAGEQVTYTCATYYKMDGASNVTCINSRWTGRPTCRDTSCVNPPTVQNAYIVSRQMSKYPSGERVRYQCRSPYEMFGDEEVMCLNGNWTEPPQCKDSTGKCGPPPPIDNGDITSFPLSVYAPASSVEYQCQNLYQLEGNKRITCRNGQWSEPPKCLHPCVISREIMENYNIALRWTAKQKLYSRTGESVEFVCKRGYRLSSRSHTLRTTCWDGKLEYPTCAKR
# Description: Total proteins derived from human plasma (2 μl) were electrophoretically fractionated on 3-8% Tris-acetate gel (Novex, San Diego, Calif.) under non-reducing conditions. For the ligand blotting experiment, the proteins were transferred to a […] nitrocellulose membrane that was incubated for […] with 1% Nonidet P-40 (NP-40). Non-specific binding was further blocked with a 2 hr incubation in TBS containing 0.1% ATC. Incubations with 70 nM AM labeled with biotin, fluorescein, or DNP were carried out overnight at 4° C. in blocking buffer containing 0.1% TWEEN® 20 nonionic detergent. For biotin detection, the ligand blot was incubated with an avidin-biotin-peroxidase complex and the AEC reagent (Vector Laboratories, Inc., Burlingame, Calif.). For fluorescein and DNP, the ligand blots were incubated 1 hr at room temperature with rabbit anti-fluorescein or anti-DNP IgG, respectively, (1:1000 in incubation buffer; Molecular Probes, Inc.). Anti-rabbit antibody labeled with alkaline phosphatase (1:2000; Dako Corporation, Carpenteira, Calif.) was added for 0.5 hr, and the blot was developed using 4-nitro blue tetrazolium chloride/5-bromo-4-chloro-3-indolyl phosphate (NBT/BCIP) as the color-substrate solution (Roche Molecular Biochemicals, Indianapolis, Ind.).
# Following this preincubation, labeled full-length AM was introduced and incubated overnight at 4° C.
# [3] = Storage of non-radioactively labeled AM; type: physicochemical; conditions: stored at 4° C. for as long as 3 months
# Description: Non-radioactive labeling of AM was accomplished by conjugating synthetic AM comprising amino acids 1-52 (Phoenix Pharmaceuticals, Inc., Mountainview, Calif.) with succinimidyl esters linked to biotin (Pierce Chemical Co., Rockford, Ill.), fluorescein (Molecular Probes, Inc., Eugene, Oreg.), or dinitrophenol (DNP; Molecular Probes, Inc.). Briefly, 100 μg of AM (16 μM) was dissolved in 1 ml of 50 mM sodium bicarbonate, pH 8.5, and the succinimidyl ester was added to yield a final molar concentration of 10:1 (linker:AM). The mixture was incubated with slow agitation for 1 hr at room temperature and the reaction was terminated by the addition of 0.1 M ethanolamine followed by another incubation for 1 hr. Unincorporated ligand was removed by extracting the AM using reverse phase SEP-PAK® C-18 solid-phase extraction cartridges (Waters, Milford, Mass.) and eluting the sample with acidic-isopropanol. The extract was lyophilized and reconstituted in 1 ml of TBS (0.05 M Tris-HCl, 0.15 M NaCl), 0.1% alkali-treated casein (ATC), 0.1% TWEEN® 20 nonionic detergent, and 0.05% TRITON® X-100 nonionic detergent, pH 7.4.
# [4] = molecular target: factor H (Homo sapiens, UniProt P08603); experiment: Multi-well plate competition of fluorescein-labeled AM binding to factor H; parameters: purchased Sigma; conditions: 50 nM fluorescein-labeled AM; factor H 5 ng/well; increasing concentrations of unlabeled competitor
# factor H, sequence (P08603 19-1231): as above
# Description: Lane 1: horseradish peroxidase (5 μg), a glycosylated protein used as positive control; Lane 2: soybean trypsin inhibitor (5 μg), a non-glycosylated protein used as negative control; Lane 3: AMBP-1 (2 μg). […] Lane 1: isoelectric focusing markers; Lane 2: AMBP-1 (4 μg). […] Lane 1: AMBP-1 (100 ng); Lane 2: AMBP-1 (200 ng); Lane 3: commercially available human factor H (50 ng); Lane 4: human plasma (0.2 μl). […] Results represent one of two independent experiments. Values represent mean and standard deviation of three determinations. “B/B0” indicates the ratio of signals generated in the presence/absence of unlabeled competitor.
# as §1
# AM/fH complex, sequence (P08603 19-1231, one chain of several): as the sequence (P08603 19-1231) above
Compound,Competition for labeled AM/AMBP-1 complex on ligand blot [2],also measured
"N#C[S-].[Na+] [NaSCN, sodium thiocyanate]",,Dissociation of AM/fH complex [1]: dissociated
AM1-12: AM truncated polypeptide (YRQSMNNFQGLR),only full-length AM was able to dissociate,
AM13-52: AM truncated polypeptide,only full-length AM was able to dissociate,
AM16-21: AM truncated polypeptide (CRFGTC),only full-length AM was able to dissociate,
AM22-52: AM truncated polypeptide,only full-length AM was able to dissociate,
AM34-52: AM truncated polypeptide (TDKDKDNVAPRSKISPQGY),only full-length AM was able to dissociate,
"Labeled AM: synthetic AM 1-52 conjugated via succinimidyl esters to biotin, fluorescein or dinitrophenol",,Storage stability (activity) [3]: without significant loss of activity
"amylin (KCNTATCATQRLANFLVHSSNNFGAILSSTNVGSNTY; not fully specified (C-terminus, bridges); cysteine pairing not given here; UniProt P10997 34-70, looked up)",only full-length AM was able to dissociate,
calcitonin gene-related peptides [CGRP],only full-length AM was able to dissociate,Effect on binding of fluorescein-labeled AM to factor H-coated plate [4]: not affected
insulin-like growth factor [IGF-1],only full-length AM was able to dissociate,
proadrenomedullin N-terminal 20 peptide (ARLDVASEFRKKWNKWALSR) [PAMP],only full-length AM was able to dissociate,Effect on binding of fluorescein-labeled AM to factor H-coated plate [4]: not affected
